B1: Zinc finger homeobox protein 3, residues 2147 to 2202; numbered along this chain, Q15911 (parent)
chain: RPRTRITDDQLRVLRQYFDINNSPSEEQIKEMADKSGLPQKVIKHWFRNTLFKERQ

Variants of: B1
Assay: abundance fitness (aPCA) (normalised: wild type 0, dead -1); higher = more abundant; growth selection in yeast, the domain comes from the species named
Settings: Homo sapiens

Abundance fitness: each site, then its substitutions
T4: V -0.13, K -0.16, L -0.11, H -0.549, D 0.029, F 0.125, N 0.134, G -0.256, P -0.159, M 0.13, Y -0.005, W -1.13, R -0.393, I -0.02, S -0.191
I6: G -0.48, T -0.448, S -0.46, F -0.052, R -0.727, D -0.484, L 0.179, P -0.108, H -0.241, W -0.477, K -0.332, C -0.4, E -0.408, Q -0.529, Y -0.123, N -0.401, V -0.084
D19: L 0.032, E 0.022, C -0.094, S -0.015, P -0.336, T -0.02, H -0.034, I -0.051, W -0.131, M 0.044, N -0.056, Y 0.044, K 0.101, R -0.031, F -0.171, G -0.125, Q -0.207, V 0.014
R3: V 0.006, M 0.293, N 0.016, S 0.034, T 0.197, L -0.014, W -0.57, K -0.25, Y -0.085, Q -0.062, P -0.108
T7: S 0.054, Y -0.388, I -0.596, N -0.204, F -0.432, M -0.162, K -0.336, R -0.174, P -0.086, Q -0.253, L -0.273, G -0.2, H -0.336, A -0.024, V -0.208, C -0.367, E -0.133
Q16: E -0.045, N -0.174, P -0.242, M -0.01, K 0.092, G 0.008, T -0.012, W -0.09, I -0.469, V -0.162, H -0.101, S 0.122, D -0.025, A -0.065, F -0.196, R 0.001, L -0.091
V13: C -0.149, Q 0.043, W 0.003, H -0.199, L 0.055, G -0.415, T -0.044, R -0.243, Y -0.037, S -0.033, N -0.227, A -0.22, I 0.097, K -0.054, F -0.012, P -0.587, E -0.01
F18: M -0.15, W 0.022, C -0.161, Y 0.016, H -0.259, A -0.187, R -0.069, T -0.109, L -0.137, V -0.333, D -0.419, S -0.1, G -0.263, E -0.555, K -0.039, N -0.451, Q -0.203
I20: P 0.036, G -0.045, K -0.081, Q -0.019, N 0.008, L -0.036, C 0.1, E -0.228, V -0.074, D -0.087, A 0.009, Y -0.237, W -0.184, H -0.001, F -0.037, M 0.02, T -0.052
D9: I -0.176, S 0.098, Y -0.148, P -0.074, K 0.046, F -0.013, A 0.088, G -0.068, R -0.143, T 0.038, C 0.158, L -0.106, W -0.171, V -0.172, Q 0.018, M -0.082
N22: K -0.085, G -0.152, C 0.001, Q 0.038, A 0.022, L -0.092, P -0.035, E -0.057, M 0.038, F -0.222, D -0.189, I -0.052, R 0.116, H 0.219
D8: M -0.096, I -0.122, Y -0.215, S 0.02, A -0.022, T -0.001, G -0.063, C 0.054, F -0.204, P 0.149, R -0.226, N -0.211, E -0.012, Q 0.061, L -0.028, V -0.05, H 0.026, W -0.277
L14: A -0.951, W -0.721, E -0.947, K -1.03, R -0.982, G -0.876, H -0.666, D -0.932, Q -1.13, N -1.22, M 0.058, T -0.942, S -0.998, V -0.49, I -0.217, Y -1.02, F -0.064, P -1.05
Y17: D -0.184, L -0.133, T -0.369, V -0.153, W -0.181, H -0.127, A -0.165, M 0.083, F 0.026, Q -0.196, R -0.369, E -0.168, N -0.095, I -0.175, C -0.204, S -0.207, P -0.838
R5: T 0.137, Q -0.027, N 0.201, D 0.235, I 0.148, E 0.155, C 0.076, S 0.088, M 0.138, W -0.054, F 0.08, H 0.074, L 0.143, A -0.051, V 0.129, G -0.023, K 0.093, P 0.127
R12: S 0.018, A -0.122, W -0.456, F -0.193, Q -0.082, V 0.04, M 0.077, H -0.128, I 0.046, P -0.477, T -0.205, K 0.051, D -0.21, L -0.085, C -0.067, Y -0.4, G -0.067, N -0.061
Q10: C -0.381, D -0.308, E -0.394, A -0.263, R -0.605, N -0.477, F -0.626, P -0.741, T -0.357, I -0.464, W -0.718, G -0.602, H 0.025, Y -0.626, L -0.453, M -0.27, K -0.359
N21: I -0.276, P -0.335, M -0.103, D -0.102, H -0.01, W -0.38, G -0.153, S -0.013, L -0.256, Q -0.105, T 0.152, Y 0.014, K -0.018, A -0.008, C -0.14, E -0.005, F -0.421, V -0.171
L11: Q -0.01, A -0.019, H -0.399, S -0.161, V -0.252, R 0.034, T -0.026, E 0.142, F -0.216, I -0.126, D -0.182, G -0.088, P -0.962, N -0.019, K 0.095, M -0.04, C -1.12, Y -0.297
R15: A -0.23, M -0.023, H 0.099, T -0.023, D -0.29, K -0.074, E -0.048, Y -0.127, S -0.067, P -0.898, V -0.226, W -0.125, Q -0.045, L -0.244, G -0.256, F -0.152

From the Human Domainome abundance scans (Beltran et al. 2025)
